Measurements: patent US20180362645A1 (Amgen, published 2018)
“And” between values parts separate entries of the source, which are not always exact repeats. Equal entries are not always repeated. Where no end group is shown, it is not given here.

B1: 14B (antibody, human IgG1, kappa, N297G)
heavy: not shown
light: EIVLTQSPATLSLSPGERATLSCRASQSVGRSLHWYQQKPGQAPRLLIKYASQSLSGIPARFSGSGSGTDFTLTISSLEPEDFAVYYCHQSSRLPFTFGPGTKVDIKRTVAAPSVFIFPPSDEQLKSGTASVVCLLNNFYPREAKVQWKVDNALQSGNSQESVTEQDSKDSTYSLSSTLTLSKADYEKHKVYACEVTHQGLSSPVTKSFNRGEC
B2: 26B (antibody, human IgG1, kappa, N297G)
heavy: not shown
light: DIQLTQSPSFLSASVGDRVTITCRASQSIGRSLHWYQQKPGKAPKLLIKYASQSLSGVPSRFSGSGSGTEFTLTISSLQPEDFATYYCHQSSRLPFTFGPGTKVDIKRTVAAPSVFIFPPSDEQLKSGTASVVCLLNNFYPREAKVQWKVDNALQSGNSQESVTEQDSKDSTYSLSSTLTLSKADYEKHKVYACEVTHQGLSSPVTKSFNRGEC
B3: 38A (antibody, human IgG2, kappa, V domains shown)
VH: QVQLQESGPGLVKPSQTLSLTCTVSGGSISRGGYYWSWIRQHPGKGLEWIGYIYYSGNTYYNPSLKSRVIISGDTSKNQLSLKLRSVTAADTAVYYCARGGAARGMDVWGQGTTVTVSS
VL: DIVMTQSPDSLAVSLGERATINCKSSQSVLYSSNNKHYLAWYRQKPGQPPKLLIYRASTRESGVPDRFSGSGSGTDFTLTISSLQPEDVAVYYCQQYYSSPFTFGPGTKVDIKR
notes: also called LC-18 and HC-50
B4: 39A (antibody, human IgG2, kappa)
heavy: QVQLQESGPGLVKPSQTLSLTCTVSGGSISSGGYYWSWIRQHPGKGLEWIGYIYYSGNTYYNPSLKSRVTISGDTSKNQFSLKLRSVTAADTAVYYCTRGGAARGMDVWGQGTTVTVSSASTKGPSVFPLAPCSRSTSESTAALGCLVKDYFPEPVTVSWNSGALTSGVHTFPAVLQSSGLYSLSSVVTVPSSNFGTQTYTCNVDHKPSNTKVDKTVERKCCVECPPCPAPPVAGPSVFLFPPKPKDTLMISRTPEVTCVVVDVSHEDPEVQFNWYVDGVEVHNAKTKPREEQFNSTFRVVSVLTVVHQDWLNGKEYKCKVSNKGLPAPIEKTISKTKGQPREPQVYTLPPSREEMTKNQVSLTCLVKGFYPSDIAVEWESNGQPENNYKTTPPMLDSDGSFFLYSKLTVDKSRWQQGNVFSCSVMHEALHNHYTQKSLSLSPGK
light: not shown
notes: also called 39A lot1; 39A lot2
B5: 03A (antibody, human IgG2, kappa, V domains shown)
VH: QVQLVESGGGVVQPGRSLRLSCAASGFTFSYYAIHWVRQAPGKGLEWVAVISYDGSNKYYADSVKGRFTISRDNSKNTLYLQMNSLRAEDTAVYYCARGYDLLTGYPDYWGQGTLVTVSS
VL: DIQLTQSPSFLSASVGDRVTITCRASQSIGRSLHWYQQKPGKAPKLLIKYASQSLSGVPSRFSGSGSGTEFTLTISSLQPEDFATYYCHQSSRLPFTFGPGTKVDIKR
notes: also called LC-03 and HC-03
B6: 05A (antibody, human IgG2, kappa, V domains shown)
VH: QVQLVESGGGVVQPGRSLRLSCAASGFTFSRFAMHWVRRAPGKGLEWVAVISYDGGNKYYAESVKGRFTISRDNSKNTLNLLMNSLRAEDTALFYCARGYDVLTGYPDYWGQGTLVTVSS
VL: DIQLTQSPSFLSASVGDRVTITCRASQSIGRSLHWYQQKPGKAPKLLIKYASQSLSGVPSRFSGSGSGTEFTLTISSLQPEDFATYYCHQSSRLPFTFGPGTKVDIKR
notes: also called LC-05 and HC-06
B7: 29A (antibody, human IgG2, kappa)
heavy: QVQLVESGGGVVQPGRSLRLSCAASGFTFSRYAMHWVRQASGKGLEWVAVISYDGSNKYYADSVKGRFTISRDNSKNTLYLLMSSLRAEDTAVFYCARGYDILTGYPDYWGQGTLVTVSSASTKGPSVFPLAPCSRSTSESTAALGCLVKDYFPEPVTVSWNSGALTSGVHTFPAVLQSSGLYSLSSVVTVPSSNFGTQTYTCNVDHKPSNTKVDKTVERKCCVECPPCPAPPVAGPSVFLFPPKPKDTLMISRTPEVTCVVVDVSHEDPEVQFNWYVDGVEVHNAKTKPREEQFNSTFRVVSVLTVVHQDWLNGKEYKCKVSNKGLPAPIEKTISKTKGQPREPQVYTLPPSREEMTKNQVSLTCLVKGFYPSDIAVEWESNGQPENNYKTTPPMLDSDGSFFLYSKLTVDKSRWQQGNVFSCSVMHEALHNHYTQKSLSLSPGK
light: DIQLTQSPSFLSASVGDRVTITCRASQSIGRSLHWYQQKPGKAPKLLFKYASQSLSGVPSRFSGSGSGTEFTLTISSLQPEDFATYYCHQSSRLPFTFGPGTKVDIKRTVAAPSVFIFPPSDEQLKSGTASVVCLLNNFYPREAKVQWKVDNALQSGNSQESVTEQDSKDSTYSLSSTLTLSKADYEKHKVYACEVTHQGLSSPVTKSFNRGEC
notes: also called LC-11 and HC-39
B8: 28A (antibody, human IgG2, kappa, V domains shown)
VH: QVQLVESGGGVVQPGRSLRLSCAASGFTFSRYAMHWVRQASGKGLEWVAVISYDGSNKYYADSVKGRFTISRDNSKNTLYLLMSSLRAEDTAVFYCARGYDILTGYPDYWGQGTLVTVSS
VL: EIVLTQSPDFQSVTPKEKVTITCRASQSIGRSLHWYQQKPDQSPKLLFKYASQSLSGVPSRFSGSGSGTDFTLTINSLEAEDAATYYCHQSSRLPFTFGPGTKVDIKR
notes: also called LC-10 and HC-39

Legend:
cyno PAC1 = cyno PAC1 (cynomolgus); assay: cell-based or functional assay
human VPAC2 = target: T1, human VPAC2 (human, UniProt P41587 24-438); assay: cell-based or functional assay
T1 sequence (looked up): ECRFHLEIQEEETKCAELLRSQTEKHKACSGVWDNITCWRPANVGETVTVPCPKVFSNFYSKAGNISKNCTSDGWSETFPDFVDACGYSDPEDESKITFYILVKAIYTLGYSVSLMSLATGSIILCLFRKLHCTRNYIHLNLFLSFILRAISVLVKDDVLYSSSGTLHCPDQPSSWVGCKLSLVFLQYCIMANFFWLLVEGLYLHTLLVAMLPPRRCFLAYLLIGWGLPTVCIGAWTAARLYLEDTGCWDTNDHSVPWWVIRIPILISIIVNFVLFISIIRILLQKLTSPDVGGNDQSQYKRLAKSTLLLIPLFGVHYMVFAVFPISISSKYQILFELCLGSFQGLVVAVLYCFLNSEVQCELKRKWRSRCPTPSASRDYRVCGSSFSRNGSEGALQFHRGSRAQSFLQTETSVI

human VPAC1 = target: T2, human VPAC1 (human, UniProt P32241 31-457); assay: cell-based or functional assay
T2 sequence (looked up): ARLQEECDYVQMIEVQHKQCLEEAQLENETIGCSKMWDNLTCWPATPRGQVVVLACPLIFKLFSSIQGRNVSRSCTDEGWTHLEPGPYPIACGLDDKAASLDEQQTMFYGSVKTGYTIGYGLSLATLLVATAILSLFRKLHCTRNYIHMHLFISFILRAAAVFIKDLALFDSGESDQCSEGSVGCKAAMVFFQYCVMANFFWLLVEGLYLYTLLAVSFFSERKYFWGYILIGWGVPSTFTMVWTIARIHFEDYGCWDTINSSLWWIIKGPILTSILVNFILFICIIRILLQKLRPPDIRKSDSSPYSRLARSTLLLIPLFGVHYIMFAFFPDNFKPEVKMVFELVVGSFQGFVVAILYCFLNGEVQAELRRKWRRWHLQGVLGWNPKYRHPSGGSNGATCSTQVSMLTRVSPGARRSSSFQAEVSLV

VPAC2 = target: T3, VPAC2; assay: cell-based or functional assay
T3 sequence (P41587 whole entry, species assumed, looked up): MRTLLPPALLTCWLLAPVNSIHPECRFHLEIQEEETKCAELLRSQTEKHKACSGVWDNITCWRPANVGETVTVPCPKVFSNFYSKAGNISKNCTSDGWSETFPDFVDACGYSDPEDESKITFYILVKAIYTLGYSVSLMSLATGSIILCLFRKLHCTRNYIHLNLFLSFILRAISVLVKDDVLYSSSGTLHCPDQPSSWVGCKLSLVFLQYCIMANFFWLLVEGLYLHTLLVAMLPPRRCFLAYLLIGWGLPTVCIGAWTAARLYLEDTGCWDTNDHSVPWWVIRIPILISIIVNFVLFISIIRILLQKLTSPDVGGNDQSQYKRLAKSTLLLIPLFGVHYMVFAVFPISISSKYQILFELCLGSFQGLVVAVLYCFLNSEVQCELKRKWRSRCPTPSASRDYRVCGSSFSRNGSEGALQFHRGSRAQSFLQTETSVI

[1] = target: T4, human pituitary adenylate cyclase-activating polypeptide type I receptor (human, UniProt P41586 21-468); assay: radioligand competition, hPAC1 CHO membranes; competitor 125I-14A
T4 construct: whole, on cells; On SH-SY5Y or recombinant CHO cells (cAMP assay), as membranes of hPAC-1 AequoScreen CHO cells (radioligand assay) and on CHOK1/huPac1 whole cells (KinExA); also called human PAC1; hPAC1
T4 sequence (looked up): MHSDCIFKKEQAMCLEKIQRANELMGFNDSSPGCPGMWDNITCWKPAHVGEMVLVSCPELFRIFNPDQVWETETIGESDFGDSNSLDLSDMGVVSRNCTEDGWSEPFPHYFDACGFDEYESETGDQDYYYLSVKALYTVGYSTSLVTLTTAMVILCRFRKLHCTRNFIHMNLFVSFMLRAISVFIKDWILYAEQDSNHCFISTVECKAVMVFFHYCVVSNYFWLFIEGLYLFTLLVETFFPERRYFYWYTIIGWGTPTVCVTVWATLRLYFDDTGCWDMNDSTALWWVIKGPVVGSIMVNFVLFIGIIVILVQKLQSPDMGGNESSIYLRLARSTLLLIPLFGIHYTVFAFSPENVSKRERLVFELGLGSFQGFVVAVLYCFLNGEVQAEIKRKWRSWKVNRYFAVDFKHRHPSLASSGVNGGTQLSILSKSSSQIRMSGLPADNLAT
Description: (§1) The plates were incubated at room temperature for 2 hours with shaking at 60 rpm, and then the contents of each well were filtered over 0.5% polyethyleneimine (PEI)-treated (for at least two hours) GF/C 96-well filter plates. The GF/C filter plates were washed five times with ice-cold 50 mM Tris, pH 7.5 and dried in an oven at 55° C. for 1 hour. The bottoms of the GF/C plates were then sealed. 40 μl Microscint™ 20 was added to each well, the tops of the GF/C plates were sealed with TopSeal™-A (a press-on adhesive sealing film), and the GF/C plates were counted with TopCount NXT (Packard). The data were analyzed using Prizm (GraphPad Software Inc.)

[2] = target: T4, human pituitary adenylate …; assay: KinExA, CHOK1/huPac1 whole cells
Description: Binding of anti-Pac1 antibody with CHOK1/huPac1 cells were tested on KinExA. […] Samples containing anti-Pac1 antibody and whole cells were incubated with rotation at room temperature for 4 hours before 5-minute 220-g centrifugation at 4° C. to separate the whole cells and anti-Pac1 antibody-cell complexes from unbound anti-Pac1 antibody. The supernatants containing free anti-Pac1 antibody were filtered through 0.22 μm filter before loading to the goat-anti-huFc-coated beads on KinExA. […] The binding signal is proportional to the concentration of free anti-Pac1 antibody in solution at each cell density. Equilibrium dissociation constant (KD) was estimated by n-curve analysis in KinExA™ Pro software (Sapidyne Instruments, Inc., Boise, Id.).

[3] = target: T4, human pituitary adenylate …; assay: radioligand competition, hPAC1 CHO membranes; competitor 125I-39A
Description: as §1

[4] = target: T4, human pituitary adenylate …; assay: radioligand competition, hPAC1 CHO membranes; competitor 125I-26A
Description: as §1

[5] = target: T4, human pituitary adenylate …; assay: radioligand competition, hPAC1 CHO membranes; competitor 125I-26B
Description: as §1

[6] = target: T4, human pituitary adenylate …; assay: radioligand competition, hPAC1 CHO membranes; competitor 125I-14B
Description: as §1

[7] = target: T4, human pituitary adenylate …; assay: radioligand competition, hPAC1 CHO membranes; competitor 125I-01B
Description: as §1

[8] = target: T4, human pituitary adenylate …; assay: radioligand competition, hPAC1 CHO membranes; competitor 125I-39B
Description: as §1

[9] = target: T4, human pituitary adenylate …; assay: radioligand competition, hPAC1 CHO membranes; competitor 125I-29B
Description: as §1

[10] = target: T4, human pituitary adenylate …; assay: radioligand competition, hPAC1 CHO membranes; competitor 125I-29A
Description: as §1

[11] = target: T4, human pituitary adenylate …; assay: radioligand competition, hPAC1 CHO membranes; competitor 125I-28A
Description: as §1

| Binder | Ki [1] [nM] | Kd [2] [nM] | Ki [3] [nM] | Ki [4] [nM] | Ki [10] [nM] | Ki [11] [nM] | also measured |
| --- | --- | --- | --- | --- | --- | --- | --- |
| B1 |  |  |  |  |  |  | cyno PAC1 IC50 (cAMP assay) (cyno PAC1): 0.6 nM; hVPAC2 IC50 (cAMP assay) (human VPAC2): > 10000 nM; hVPAC1 IC50 (cAMP assay) (human VPAC1): > 10000 nM |
| B2 |  |  |  |  |  |  | cyno PAC1 IC50 (cAMP assay) (cyno PAC1): 1.3 nM; hVPAC2 IC50 (cAMP assay) (human VPAC2): > 10000 nM; hVPAC1 IC50 (cAMP assay) (human VPAC1): > 10000 nM |
| HSDGIFTDSYSRYRKQMAVKKYLAAVLGKRYKQRVKNK (ligand, UniProt P18509 132-169, looked up, ends and bridges not checked) [PACAP38] |  |  |  |  |  |  | VPAC2 EC50 (agonist activity) (VPAC2): 0.06 nM |
| B3 | 0.07 | 0.016 | 0.11 | 0.07 |  |  |  |
| B4 | 0.2 | 0.036 | 0.16 | 0.13 |  |  | Ki [5]: 0.17 nM and 0.14 nM; Ki [6]: 0.24 nM and 0.43 nM; Ki [7]: 0.3 nM and 0.15 nM; Ki [8]: 0.2 nM and 0.18 nM; Ki [9]: 0.08 nM and 0.14 nM |
| B5 |  | 0.126 |  |  | 0.14 | 0.01 |  |
| B6 |  |  |  |  | 0.03 | 0.02 |  |
| B7 | 0.07 | 0.013 | 0.06 | 0.03 | 0.04 |  | Ki [5]: 0.11 nM; Ki [6]: 0.1 nM; Ki [7]: 0.13 nM; Ki [8]: 0.08 nM; Ki [9]: 0.09 nM |
| B8 |  |  |  |  | 0.04 | < 0.01 |  |
